Data: publication PMC10391610, “Survivin prevents the polycomb repressor complex 2 from methylating histone 3 lysine 27” (iScience, 2023)

Key:
Assay in all cases: peptide or protein array; PEPperCHIP microarray of 15 amino acid peptides with 10 amino acid overlap, immobilised; survivin at 1 μg/ml (53.5 nM monomer) in incubation buffer; stained with 6x His Tag Antibody DyLight680; LI-COR Odyssey read-out
[1] = target: microarray peptides covering EED 128–152 (human)
[2] = target: microarray peptides covering EZH2 172–211 (human)
[3] = target: microarray peptides covering JARID2 170–194 (human)
[4] = target: microarray peptides covering SUZ12 573–597 (human)
[5] = scale: % of maximum fluorescence intensity units

survivin (His-tagged, from pHIS8), sequence (O15392 whole entry): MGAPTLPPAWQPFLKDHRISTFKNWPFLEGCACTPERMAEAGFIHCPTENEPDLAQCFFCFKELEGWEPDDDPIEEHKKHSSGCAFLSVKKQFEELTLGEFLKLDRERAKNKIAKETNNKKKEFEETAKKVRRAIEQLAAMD

survivin (His-tagged, from pHIS8) (from UniProt O15392 1-142) (natural protein)
Integrated FI (units of the maximum FI per peptide) [1]: 0.31
Average FI (%) [1, 5]: 10
Integrated FI (units of the maximum FI per peptide) [2]: 4.28
Average FI (%) [2, 5]: 71
Integrated FI (units of the maximum FI per peptide) [3]: 3
Average FI (%) [3, 5]: 100
Integrated FI (units of the maximum FI per peptide) [4]: 0.6
Average FI (%) [4, 5]: 20
